Positions count from the first letter of the chain named. Like-named read-outs stand apart in the source and are kept apart here.
Legend:
AE.A244 gp120 [1] = target: AE.A244 gp120 (HIV-1)
92TH023 gp120 = 92TH023 gp120 (HIV-1)
AE.A244 gp120 [2] = target: T1, AE.A244 gp120 (HIV-1); assay: ELISA
T1 construct: also called AE.A244 gD-gp120; E.A244gDneg

AE.A244 gD+ gp120 [3] = target: T2, AE.A244 gD+ gp120 (HIV-1); assay: ELISA
T2 construct: domain: gp120; also called AE.A244 gp120gD+

gp70 A.92RW020V1V2 = gp70 A.92RW020V1V2 (murine leukemia virus; HIV-1); assay: ELISA
J08 A.92RW020V1V2 = J08 A.92RW020V1V2 (HIV-1); assay: ELISA
J08 C.97ZA012V1V2 = target: T3, J08 C.97ZA012V1V2 (HIV-1); assay: ELISA
T3 chain: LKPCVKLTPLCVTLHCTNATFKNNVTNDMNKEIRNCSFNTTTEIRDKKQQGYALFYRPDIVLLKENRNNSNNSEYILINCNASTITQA

J08 C.ZM109.V1V2 = J08 C.ZM109.V1V2 (HIV-1); assay: ELISA
J08 C.ZM109V1V2 N173D = J08 C.ZM109V1V2 N173D (HIV-1); assay: ELISA
AE.A244 gp120 [4] = target: T1, AE.A244 gp120; assay: ELISA; remark: listed apart in the source
AE.A244 gD+ gp120 [5] = target: T2, AE.A244 gD+ gp120; assay: ELISA; remark: listed apart in the source
[6] = target: T4, AE.A244 V1/V2 tags, natively deglycosylated (HIV-1); assay: ELISA
T4 construct: also called AE.A244V1V2 tags Degly

AE.A244 gp120 delta 11 = target: T5, AE.A244 gp120 delta 11 (HIV-1); assay: ELISA
T5 construct: also called E.A244gp120Δ11; AE.A244 Δ11 gp120

AE.A244 gp120D11/K169V = target: T6, AE.A244 gp120D11/K169V (HIV-1); assay: ELISA
T6 construct: also called A244 gp120 K169V; AE.A244 gp120/K169V

[7] = target: T7, AE.A244 gp120 D11/K169V/V172E/H173Y (HIV-1); assay: ELISA
T7 construct: also called A244 gp120 Mut3

AE.703359 gp120D11 = target: T8, AE.703359 gp120D11 (HIV-1); assay: ELISA
T8 construct: also called AE; 703359 gp120 WT; AE.703357 (other spelling in the text)

AE.703359 gp120D11/Q169K = target: T9, AE.703359 gp120D11/Q169K (HIV-1); assay: ELISA
T9 construct: also called AE.703359 gp120 Q169K

[8] = target: T10, AE.703359 gp120D11/Q169K/R170Q/Q173H (HIV-1); assay: ELISA
T10 construct: also called AE.703359 gp120 Mut3

AE.427299 gp120D11 = target: T11, AE.427299 gp120D11 (HIV-1); assay: ELISA
T11 construct: also called AE.427299 gp120 WT

AE.427299 gp120D11/Q169K = target: T12, AE.427299 gp120D11/Q169K (HIV-1); assay: ELISA
T12 construct: also called AE.427299 gp120 Q169K

[9] = target: T13, AE.427299 gp120/R168K/Q169K/Y173H/A174V (HIV-1); assay: ELISA
T13 construct: also called AE.427299 gp120 Mut4

[10] = target: T14, AE.A244 V1/V2 Tags N156QN160Q (HIV-1); assay: ELISA
T14 chain: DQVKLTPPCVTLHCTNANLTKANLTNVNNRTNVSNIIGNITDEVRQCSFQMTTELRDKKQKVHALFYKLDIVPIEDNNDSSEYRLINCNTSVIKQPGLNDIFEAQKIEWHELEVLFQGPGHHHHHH

Env of AE.CM244 virus = Env of AE.CM244 virus (HIV-1); assay: cell-based or functional assay
gp70 B.CaseA2 V1/V2 [11] = target: T15, gp70 B.CaseA2 V1/V2 (HIV-1 V1V2 on murine leukemia virus gp70); assay: ELISA
T15 construct: also called B.gp70CaseA2 V1/V2; gp70 B.CaseAV1V2
T15 chain: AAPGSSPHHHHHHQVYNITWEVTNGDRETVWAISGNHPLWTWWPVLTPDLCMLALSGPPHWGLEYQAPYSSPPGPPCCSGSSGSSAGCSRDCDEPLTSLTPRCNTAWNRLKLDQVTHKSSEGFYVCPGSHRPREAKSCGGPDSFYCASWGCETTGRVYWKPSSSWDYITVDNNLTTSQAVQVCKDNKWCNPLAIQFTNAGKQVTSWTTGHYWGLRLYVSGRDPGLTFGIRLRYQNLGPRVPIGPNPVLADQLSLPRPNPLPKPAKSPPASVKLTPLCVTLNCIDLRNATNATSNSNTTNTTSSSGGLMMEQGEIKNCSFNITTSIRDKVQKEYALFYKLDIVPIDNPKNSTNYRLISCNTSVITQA

A.Q23 V1V2 tags [12] = target: A.Q23 V1V2 tags (HIV-1); assay: ELISA
gp70 B.CaseA2 V1/V2 [13] = target: T15, gp70 B.CaseA2 V1/V2; assay: ELISA
A.Q23 V1V2 tags [14] = target: A.Q23 V1V2 tags (HIV-1); assay: ELISA; remark: listed apart in the source
C.CAP206 gp140CF.12 = C.CAP206 gp140CF.12 (HIV-1); assay: ELISA, OD405 at 10 ug/ml
A.Q23 V1V2 tags [15] = target: A.Q23 V1V2 tags (HIV-1); assay: ELISA, OD405 at 10 ug/ml

B1: CH59 (antibody, V domains shown)
VH: EVQLVESGGGLVQPGRSLRLSCAASGFTFDDGAMHWVRQAPGKGLEWVSGISWNSNIIAYADSVKGRFTISRDNAKNSLYLEMNSLRVEDTALYYCAKDSPRGELPLNYWGQGTLVTVSS
VL: SYELTQPPSVSVSPGQTARITCSGDALPKNYAYWYQQKSGQAPVLVIYEDSKRPSGIPERFSGSSSGTMATLTISGAQVEDEADYYCYSTDSSGNHRVFGGGTKLTVL
notes: also called mAb CH59
- IC50 (AE.A244 gp120 [1]): < 10 nM
- IC50 (92TH023 gp120): < 10 nM
- EC50 (AE.A244 gp120 [2]): 0.03 nM
- EC50 (AE.A244 gD+ gp120 [3]): 0.04 nM
- EC50 (gp70 A.92RW020V1V2): 235 nM
- EC50 (J08 A.92RW020V1V2): 377 nM
- EC50 (J08 C.97ZA012V1V2): 107 nM
- EC50 (J08 C.ZM109.V1V2): 1.16 nM
- EC50 (J08 C.ZM109V1V2 N173D): 22 nM
- EC50 (AE.A244 gp120 [4]): 0.03 nM
- EC50 (AE.A244 gD+ gp120 [5]): 0.04 nM
- EC50 [6]: 0.0015 nM
- EC50 (AE.A244 gp120 delta 11): 0.029 µg/mL
- EC50 (AE.A244 gp120D11/K169V): 0.58 µg/mL
- binding result [7]: no binding
- binding result (AE.703359 gp120D11): no binding
- EC50 (AE.703359 gp120D11/Q169K): 1.2 µg/mL
- EC50 [8]: 0.05 µg/mL
- binding result (AE.427299 gp120D11): no binding
- binding result (AE.427299 gp120D11/Q169K): no binding
- EC50 [9]: 0.03 µg/mL
- binding result [10]: binds
- ID50 assayed in TZM-bl cells, CM244.ec1 (Env of AE.CM244 virus): > 50 µg/mL

B2: CH59 reverted unmutated ancestor antibody (antibody, V domains shown)
VH: B1 VH with G32Y, N56G, I57S, A59G, E82Q, V88A, L107F, N108D
VL: B1 VL with N30K
notes: also called CH59 RUA; CH59_RUA
- ID50 assayed in TZM-bl cells, CM244.ec1 (Env of AE.CM244 virus): > 50 µg/mL

B3: CH58 reverted unmutated ancestor antibody (antibody, V domains shown)
VH: EVQLVQSGAEVKKPGESLKISCKGSGYSFTSYWIGWVRQMPGKGLEWMGIIYPGDSDTRYSPSFQGQVTISADKSISTAYLQWSSLKASDTAMYYCARLGGRYYYDSSGYYYFDYWGQGTLVTVSS
VL: NFMLTQPHSVSESPGKTVTISCTRSSGSIASNYVQWYQQRPGSSPTTVIYEDNQRPSGVPDRFSGSIDSSSNSASLTISGLKTEDEADYYCQSYDSSSWVFGGGTKLTVL
notes: also called CH58 RUA; CH58_RUA
- ID50 assayed in TZM-bl cells, CM244.ec1 (Env of AE.CM244 virus): > 50 µg/mL

B4: 697D (antibody, V domains shown)
VH: QVQLVQSGAEVKKPGSSVKVSCKASGGNFNTYTISWVRQAPGQGLEWMGRIIPIFGIVNPAQKFPGRVTINVDKSTNTAYMELSSLRSEDTAVYYCATSGVGLHFGYFDYWGQGTQVTVSS
VL: QSVLTQPPSVSGAPGQRVTISCTGSSSNIGAHYDVHWYQQLPGTAPKLLIYGNSNRPSGVPDRFSGSKSGTSASLAITGLQAEDEADYYCQSYDSSLSGYVFGTGTKVTVL
notes: also called mAb 697D; V2 conformational mAb 697D
- IC50 (AE.A244 gp120 [1]): < 10 nM
- EC50 (AE.A244 gp120 [2]): 0.8 nM
- EC50 (gp70 A.92RW020V1V2): 14 nM
- EC50 (J08 A.92RW020V1V2): 0.07 nM
- EC50 (J08 C.97ZA012V1V2): 0.06 nM
- EC50 (J08 C.ZM109.V1V2): 3 nM
- EC50 (J08 C.ZM109V1V2 N173D): 0.41 nM
- EC50 (gp70 B.CaseA2 V1/V2 [11]): 0.33 nM
- EC50 (A.Q23 V1V2 tags [12]): > 66.7 nM
- EC50 (AE.A244 gp120 [4]): 0.8 nM
- EC50 [6]: 3.6 nM
- EC50 (AE.A244 gp120 delta 11): 0.1 µg/mL
- EC50 (AE.A244 gp120D11/K169V): 0.06 µg/mL
- EC50 [7]: 0.08 µg/mL
- EC50 (AE.703359 gp120D11): 0.21 µg/mL
- EC50 (AE.703359 gp120D11/Q169K): 0.51 µg/mL
- EC50 [8]: 0.12 µg/mL
- EC50 (AE.427299 gp120D11): 0.07 µg/mL
- EC50 (AE.427299 gp120D11/Q169K): 0.13 µg/mL
- binding result [9]: no binding
- EC50 (gp70 B.CaseA2 V1/V2 [13]): 0.08 nM
- EC50 (A.Q23 V1V2 tags [14]): > 66.7 nM

B5: 697D reverted unmutated ancestor antibody (antibody, V domains shown)
VH: QVQLVQSGAEVKKPGSSVKVSCKASGGTFSSYTISWVRQAPGQGLEWMGRIIPILGIANYAQKFQGRVTITADKSTSTAYMELSSLRSEDTAVYYCATSGVGLHFGYFDYWGQGTLVTVSS
VL: B4 VL with H32G
notes: also called 697D RUA
- EC50 (gp70 B.CaseA2 V1/V2 [11]): > 667 nM
- EC50 (A.Q23 V1V2 tags [12]): > 667 nM
- EC50 (gp70 B.CaseA2 V1/V2 [13]): > 667 nM
- EC50 (A.Q23 V1V2 tags [14]): > 667 nM

B6: PG16 (antibody, V domains shown)
VH: QEQLVESGGGVVQPGGSLRLSCLASGFTFHKYGMHWVRQAPGKGLEWVALISDDGMRKYHSDSMWGRVTISRDNSKNTLYLQFSSLKVEDTAMFFCAREAGGPIWHDDVKYYDFNDGYYNYHYMDVWGKGTTVTVSS
VL: QSALTQPASVSGSPGQTITISCNGTSSDVGGFDSVSWYQQSPGKAPKVMVFDVSHRPSGISNRFSGSKSGNTASLTISGLHIEDEGDYFCSSLTDRSHRIFGGGTKVTVL
notes: also called mAb PG16; bnAb PG16
- IC50 (92TH023 gp120): 10 to 100 nM
- EC50 (AE.A244 gD+ gp120 [3]): 15 nM
- EC50 (AE.A244 gD+ gp120 [5]): 15 nM
- binding result [10]: no binding (tested: 100 ug/ml)

B7: PG9 reverted unmutated ancestor antibody (antibody, V domains shown)
VH: QVQLVESGGGVVQPGRSLRLSCAASGFTFSSYGMHWVRQAPGKGLEWVAVISYDGSNKYYADSVKGRFTISRDNSKNTLYLQMNSLRAEDTAVYYCAREAGGPDYRNGYNYYDFWSGYYNYYYMDVWGKGTTVTVSS
VL: QSALTQPASVSGSPGQSITISCTGTSSDVGSYNLVSWYQQHPGKAPKLMIYEVSKRPSGVSNRFSGSKSGNTASLTISGLQAEDEADYYCCSLTSTRRWVFGGGTKLTVL
notes: also called PG9 RUA; PG9_RUA
- binding result (C.CAP206 gp140CF.12): no binding (tested: 10 ug/ml)
- binding result (A.Q23 V1V2 tags [15]): no binding (tested: 10 ug/ml)
